Assay [1] addresses T1, human ST2L extracellular domain with C-terminal His6 tag (human, UniProt Q01638 19-328).
T1 construct: also called huST2L-ECD; ST2L-ECD
T1 sequence: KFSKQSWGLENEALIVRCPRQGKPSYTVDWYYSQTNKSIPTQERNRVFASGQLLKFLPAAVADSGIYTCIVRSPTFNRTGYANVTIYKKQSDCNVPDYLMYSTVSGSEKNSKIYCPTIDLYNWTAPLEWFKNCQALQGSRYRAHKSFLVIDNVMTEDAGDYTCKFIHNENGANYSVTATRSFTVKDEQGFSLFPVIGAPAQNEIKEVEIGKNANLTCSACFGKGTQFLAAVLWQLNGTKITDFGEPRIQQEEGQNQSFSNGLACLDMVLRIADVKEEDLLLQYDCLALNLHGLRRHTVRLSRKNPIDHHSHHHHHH
Nature of the assay: RLB ELISA: biotinylated IL-33 on coated huST2L-ECD, antibody titrated. As for the experimental part:
96-well plate was coated with 50 μl of 4 μg/ml human ST2L-ECD (amino acids 19-328 of SEQ ID NO: 1) or 2 μg/ml cyno ST2L-ECD (amino acids 19-321 of SEQ ID NO: 2) having C-terminal His₆ tag in bicarbonate buffer at 4° C. for 16 hrs. All subsequent steps were performed at room temperature. Plate was blocked with 200 μl blocking buffer, and was washed 3 times with 300 μl of wash buffer containing PBS+0.05% Tween. 30 μl of various dilutions of anti-ST2L mAbs were added to the wells and incubated for 1 hour. For human receptor-ligand binding assay 20 μl of biotinylated human IL-33 (residues 112-270 of SEQ ID NO: 3) was added at 100 ng/ml final concentration and incubated for 30 minutes. For cyno receptor-ligand binding assay 20 μl of biotinylated cyno IL-33 (residues 112-269 of SEQ ID NO: 4) was added at 200 ng/ml final concentration and incubated for 30 minutes. The plate was washed 3 times with 300 μl of wash buffer. 50 μl of 0.2 μg/ml Streptavidin-HRP (Jackson Immunoresearch) was added and incubated for 30 min. The plate was washed 3 times with 300 μl of wash buffer containing PBS+0.05% Tween. 50 μl of TMB substrate (EMD Biosciences) was added to each well. Reaction was stopped by the addition of 100 μl of 0.2N Sulfuric Acid. OD450 were measured using Envision plate reader (Perkin Elmer).
A general note: ELISA stands for enzyme-linked immunosorbent assay.

The target of assay [2] is T2, human ST2L, full length, on cells (human, UniProt Q01638 19-556).
T2 sequence: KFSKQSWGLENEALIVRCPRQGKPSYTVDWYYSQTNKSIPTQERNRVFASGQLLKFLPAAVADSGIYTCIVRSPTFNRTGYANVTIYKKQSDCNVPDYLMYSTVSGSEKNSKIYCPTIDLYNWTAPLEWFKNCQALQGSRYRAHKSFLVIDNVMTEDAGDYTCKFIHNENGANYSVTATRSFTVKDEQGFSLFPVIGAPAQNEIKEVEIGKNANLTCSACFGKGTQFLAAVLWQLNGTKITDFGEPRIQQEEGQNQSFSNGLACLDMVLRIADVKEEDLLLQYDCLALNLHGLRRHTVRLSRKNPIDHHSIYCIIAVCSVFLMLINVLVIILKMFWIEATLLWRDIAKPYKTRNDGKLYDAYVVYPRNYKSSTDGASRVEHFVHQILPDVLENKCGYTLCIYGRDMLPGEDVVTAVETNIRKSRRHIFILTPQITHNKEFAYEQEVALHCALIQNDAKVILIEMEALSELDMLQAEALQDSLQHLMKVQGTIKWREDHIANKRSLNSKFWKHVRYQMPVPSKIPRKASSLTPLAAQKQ
Nature of the assay: cell-based or functional assay.

The target of assay [3] is T1, human ST2L extracellular domain with …. Nature of the assay: SPR, mAb captured, ST2L-ECD in solution. (In general: Surface plasmon resonance follows binding to a sensor surface in real time, without labels.)
In assay [4] the target is T3, cynomolgus (Macaca fascicularis) ST2L extracellular domain with C-terminal His6 tag (Macaca fascicularis (cynomolgus), UniProt Q01638 19-321 (human entry)).
T3 construct: also called cyno ST2L-ECD; cynoST2L-ECD
T3 chain: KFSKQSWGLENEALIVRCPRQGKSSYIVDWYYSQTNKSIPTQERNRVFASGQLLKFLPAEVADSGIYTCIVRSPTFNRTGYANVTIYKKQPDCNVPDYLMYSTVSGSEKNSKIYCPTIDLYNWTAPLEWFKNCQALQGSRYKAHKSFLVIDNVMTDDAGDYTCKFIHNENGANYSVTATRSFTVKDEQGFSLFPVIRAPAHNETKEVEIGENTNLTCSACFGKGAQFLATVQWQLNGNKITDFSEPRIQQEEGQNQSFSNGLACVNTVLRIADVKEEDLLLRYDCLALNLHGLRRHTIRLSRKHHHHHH
Nature of the assay: SPR, mAb captured, ST2L-ECD in solution.

B1: STLM220 (antibody, V domains shown)
VH: EVQLLESGGGLVQPGGSLRLSCAASGFTFSFYDMFWVRQAPGKGLEWVSDIRGEGGGTAYADSVKGRFTISRDNSKNTLYLQMNSLRAEDTAVYYCARDPWSTEGSFFVLDYWGQGTLVTVSS
VL: EIVLTQSPATLSLSPGERATLSCRASQSVDDDLAWYQQKPGQAPRLLIYDASNRATGIPARFSGSGSGTDFTLTISSLEPEDFAVYYCQQYIGAPITFGQGTKVEIK
notes: frameworks VH3-23 / Vk-L6
One may read the IC50 as the point on the concentration scale where inhibition reaches its midpoint. The term Kd denotes the concentration at which binding is half-saturated. Lower therefore signals tighter binding. For orientation: koff means a measure of how fast the partners let go of each other. Read a low koff as a long-lived complex. The term kon denotes the rate constant with which the complex forms. Read a low kon as slow association. On to B1, for which the IC50 in assay [1] stood at 0.39 µg/mL. Besides, the “RGA IC50” value in assay [2] was found to be 0.6 µg/mL. In assay [3], this molecule showed an equilibrium dissociation constant (Kd) of 0.016 nM, an off-rate constant (koff) of 9.53e-05 s⁻¹ and a kon of 5.8e+06 M⁻¹ s⁻¹. Further, in assay [4], the affinity, expressed as Kd, was 0.009 nM; the koff amounted to 0.00014 s⁻¹; the kon worked out at 1.6e+07 M⁻¹ s⁻¹.

B2: STLM124 (antibody, V domains shown)
VH: EVQLLESGGGLVQPGGSLRLSCAASGFTFSIYDMIWVRQAPGKGLEWVSTIKGEGGGTYYADSVKGRFTISRDNSKNTLYLQMNSLRAEDTAVYYCARDPWSTEGSFFVLDYWGQGTLVTVSS
VL: EIVLTQSPATLSLSPGERATLSCRASQSVDDDLAWYQQKPGQAPRLLIYDASNRATGIPARFSGSGSGTDFTLTISSLEPEDFAVYYCQQYITAPLTFGQGTKVEIK
notes: frameworks VH3-23 / Vk-L6
Consider B2, for which the midpoint of inhibition in assay [1], the IC50, lay at 0.35 µg/mL. Also, in assay [2], the “RGA IC50” value came out at 0.87 µg/mL. In assay [3], this molecule gave a Kd of 0.046 nM, a koff of 0.000756 s⁻¹ and a kon of 1.65e+07 M⁻¹ s⁻¹. In assay [4], this molecule displayed a Kd of 0.03 nM, a koff of 0.00257 s⁻¹ and a kon of 8.71e+07 M⁻¹ s⁻¹.

B3: STLM209 (antibody, V domains shown)
VH: EVQLLESGGGLVQPGGSLRLSCAASGFTFSIYDMIWVRQAPGKGLEWVSTIRGEGGGTSYADSVKGRFTISRDNSKNTLYLQMNSLRAEDTAVYYCARDPWSTEGSFFVLDYWGQGTLVTVSS
VL: EIVLTQSPATLSLSPGERATLSCRASQSVDDDLAWYQQKPGQAPRLLIYDASNRATGIPARFSGSGSGTDFTLTISSLEPEDFAVYYCQQYITAPLTFGQGTKVEIK
notes: frameworks VH3-23 / Vk-L6
Molecule B3 came in with an IC50 in assay [1] of 0.32 µg/mL. In addition, the “RGA IC50” value in assay [2] came to 0.97 µg/mL. In assay [3], this molecule registered a Kd of 0.026 nM, an off-rate constant (koff) of 0.00017 s⁻¹ and a kon of 6.59e+06 M⁻¹ s⁻¹. Besides, in assay [4], the Kd was determined as 0.009 nM, the off-rate constant (koff) is 0.000311 s⁻¹ and the association rate constant (kon) was 3.39e+07 M⁻¹ s⁻¹.

B4: STLM213 (antibody, V domains shown)
VH: EVQLLESGGGLVQPGGSLRLSCAASGFTFSFYDMIWVRQAPGKGLEWVSTIRGEGGDTNYADSVKGRFTISRDNSKNTLYLQMNSLRAEDTAVYYCARDPWSTEGSFFVLDYWGQGTLVTVSS
VL: EIVLTQSPATLSLSPGERATLSCRASQSVDDDLAWYQQKPGQAPRLLIYDASNRATGIPARFSGSGSGTDFTLTISSLEPEDFAVYYCQQYIDAPLTFGQGTKVEIK
notes: frameworks VH3-23 / Vk-L6
For the molecule B4, the IC50 in assay [1] worked out at 0.34 µg/mL. Besides, the “RGA IC50” value in assay [2] stood at 0.49 µg/mL. In assay [3], the Kd turned out to be 0.014 nM, the koff stood at 0.000108 s⁻¹ and the kon is 7.54e+06 M⁻¹ s⁻¹. In assay [4], this molecule showed a Kd of 0.008 nM, an off-rate (koff) of 0.000124 s⁻¹ and a kon of 1.64e+07 M⁻¹ s⁻¹.

B5: STLM123 (antibody, V domains shown)
VH: EVQLLESGGGLVQPGGSLRLSCAASGFTFSDYAMFWVRQAPGKGLEWVSAIEGEGGETNYADSVKGRFTISRDNSKNTLYLQMNSLRAEDTAVYYCARDPWSTEGSFFVLDYWGQGTLVTVSS
VL: EIVLTQSPATLSLSPGERATLSCRASQSVDDDLAWYQQKPGQAPRLLIYDASNRATGIPARFSGSGSGTDFTLTISSLEPEDFAVYYCQQYITAPLTFGQGTKVEIK
notes: frameworks VH3-23 / Vk-L6
Turning to B5, the IC50 in assay [1] is 0.28 µg/mL. The “RGA IC50” value in assay [2] was 1.25 µg/mL. In assay [3], this molecule yielded a Kd of 0.015 nM, a koff of 0.000208 s⁻¹ and an on-rate constant (kon) of 1.37e+07 M⁻¹ s⁻¹. In assay [4], this molecule returned a dissociation constant (Kd) of 0.005 nM, a koff of 0.000519 s⁻¹ and a kon of 1e+08 M⁻¹ s⁻¹.

B6: STLM107 (antibody, V domains shown)
VH: EVQLLESGGGLVQPGGSLRLSCAASGFTFSDYAMFWVRQAPGKGLEWVSAIEGEGGETNYADSVKGRFTISRDNSKNTLYLQMNSLRAEDTAVYYCARDPWSTEGSFFVLDYWGQGTLVTVSS
VL: EIVLTQSPATLSLSPGERATLSCRASQSVDDDLAWYQQKPGQAPRLLIYDASNRATGIPARFSGSGSGTDFTLTISSLEPEDFAVYYCQQYIGAPITFGQGTKVEIK
notes: frameworks VH3-23 / Vk-L6
B6 came in with an IC50 in assay [1] of 0.44 µg/mL. Moreover, the “RGA IC50” value in assay [2] came to 1.1 µg/mL. In assay [3], binding was put at a Kd of 0.012 nM, the koff was determined as 0.000341 s⁻¹ and the kon worked out at 2.9e+07 M⁻¹ s⁻¹. In assay [4], this molecule gave a Kd of 0.007 nM, a koff of 0.00065 s⁻¹ and a kon of 1e+08 M⁻¹ s⁻¹.

B7: STLM103 (antibody, V domains shown)
VH: EVQLLESGGGLVQPGGSLRLSCAASGFTFSFYDMFWVRQAPGKGLEWVSSIRGEGGRTDYADSVKGRFTISRDNSKNTLYLQMNSLRAEDTAVYYCARDPWSTEGSFFVLDYWGQGTLVTVSS
VL: EIVLTQSPATLSLSPGERATLSCRASQSVDDDLAWYQQKPGQAPRLLIYDASNRATGIPARFSGSGSGTDFTLTISSLEPEDFAVYYCQQYIGAPITFGQGTKVEIK
notes: frameworks VH3-23 / Vk-L6
In the case of B7, in assay [1], the half-maximal inhibitory concentration (IC50) stood at 0.47 µg/mL. Also, the “RGA IC50” value in assay [2] is 1.92 µg/mL. Moreover, in assay [3], the affinity, expressed as Kd, was 0.041 nM; the koff is 0.000163 s⁻¹; the kon stood at 3.97e+06 M⁻¹ s⁻¹. In assay [4], this molecule came in with a Kd of 0.031 nM, a koff of 0.000202 s⁻¹ and a kon of 6.42e+06 M⁻¹ s⁻¹.

B8: STLM207 (antibody, V domains shown)
VH: EVQLLESGGGLVQPGGSLRLSCAASGFTFSSYDMIWVRQAPGKGLEWVSTIRGEGGTTAYADSVKGRFTISRDNSKNTLYLQMNSLRAEDTAVYYCARDPWSTEGSFFVLDYWGQGTLVTVSS
VL: EIVLTQSPATLSLSPGERATLSCRASQSVDDDLAWYQQKPGQAPRLLIYDASNRATGIPARFSGSGSGTDFTLTISSLEPEDFAVYYCQQYITAPLTFGQGTKVEIK
notes: frameworks VH3-23 / Vk-L6
In assay [1], B8 displayed an IC50 of 0.36 µg/mL. Also, the “RGA IC50” value in assay [2] stood at 2.3 µg/mL. Moreover, in assay [3], binding was put at a Kd of 0.048 nM, the off-rate constant (koff) was 0.000395 s⁻¹ and the on-rate (kon) was found to be 8.33e+06 M⁻¹ s⁻¹. For the same molecule, in assay [4], the Kd is 0.021 nM, the koff is 0.00207 s⁻¹ and the association rate constant (kon) amounted to 1e+08 M⁻¹ s⁻¹.

B9: STLM108 (antibody, V domains shown)
VH: EVQLLESGGGLVQPGGSLRLSCAASGFTFSIYDMIWVRQAPGKGLEWVSTIKGEGGGTYYADSVKGRFTISRDNSKNTLYLQMNSLRAEDTAVYYCARDPWSTEGSFFVLDYWGQGTLVTVSS
VL: EIVLTQSPATLSLSPGERATLSCRASQSVDDDLAWYQQKPGQAPRLLIYDASNRATGIPARFSGSGSGTDFTLTISSLEPEDFAVYYCQQYIGAPITFGQGTKVEIK
notes: frameworks VH3-23 / Vk-L6
On to B9, for which, in assay [1], the midpoint of inhibition, the IC50, lay at 0.23 µg/mL. Further, in assay [2], the “RGA IC50” value came to 2.34 µg/mL. In addition, in assay [3], binding was characterised by a dissociation constant (Kd) of 0.097 nM, the koff turned out to be 0.000222 s⁻¹ and the association rate constant (kon) was 2.29e+06 M⁻¹ s⁻¹. In assay [4], this molecule registered an equilibrium dissociation constant (Kd) of 0.029 nM, a koff of 0.000598 s⁻¹ and a kon of 2.05e+07 M⁻¹ s⁻¹.

Source of the values: patent US20170066831A1 (Janssen / Centocor, published 2017).
